These results are taken from patent US20260258115A1 (MAPP BIOPHARMACEUTICAL, published 2026).

As usually defined, the Kd is the equilibrium constant for the complex coming apart. A higher Kd goes with lower affinity.

B1: ADI-25542 (antibody, V domains shown)
VH: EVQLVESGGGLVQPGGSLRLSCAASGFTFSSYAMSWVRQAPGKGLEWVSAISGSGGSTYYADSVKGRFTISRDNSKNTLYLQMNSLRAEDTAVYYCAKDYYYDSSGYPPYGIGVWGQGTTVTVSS
VL: QTVVTQEPSFSVSPGGTVTLTCGLSSGSVSTSYYPSWYQQTPGQAPRTLIYSTNTRSSGVPDRFSGSILGNKAALTITGAQADDESDYYCVLYMGSGIWVFGGGTKVTVL
notes: full-length IgG
B2: ADI-19500 (antibody, V domains shown)
VH: EVQLVESGGGLVQPGGSLRLSCAASGFTFSSYSMNWVRQAPGKGLEWVSYISSSSSTIYYADSVKGRFTISRDNAKNSLYLQMNSLRAEDTAVYYCARGNTVTTFLDYWGQGTLVTVSS
VL: DIRLTQSPSSFSASTGDRVTITCRASQGISSYLAWYQQKPGKAPKLLIYAASTLQSGVPSRFSGSGSGTDFTLTISCLQSEDFATYYCQQYYSYPPLTFGGGTKVDIK
notes: full-length IgG
B3: ADI-19496 (antibody, V domains shown)
VH: EVQLVESGGGVVQPGGSLRLSCAASGFTFSSYGMHWVRQAPGKGLEWVAFIRYDGSNKYYADSVKGRFTISRDNSKSTLYLQMNSLRAEDTAVYYCAKDATFGYSSSWYNFDYWGQGTLVTVSS
VL: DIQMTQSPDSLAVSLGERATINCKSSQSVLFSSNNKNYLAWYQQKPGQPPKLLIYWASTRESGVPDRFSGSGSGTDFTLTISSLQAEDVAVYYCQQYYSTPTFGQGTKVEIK
notes: full-length IgG; also called Ab 198
B4: ADI-25556 (antibody, V domains shown)
VH: QVQLVQSGGGLVKPGGSLRLSCAASGFTFSSYSMNWVRQAPGKGLEWVSSISSSSSYIYYADSVKGRFTISRDNAKNSLYLQMNSLRAEDTAVYYCARQRGGIAVAGTYFDLWGRGTLVTVSS
VL: QSVLTQPPSVSGAPGQRVTISCTGSSSNIGAGYDVHWYQQLPGTAPKLLIYGNSNRPSGVPDRFSGSKSGTSASLAITGLQAEDEADYYCQSYDSTVVFGGGTKVTVL
notes: full-length IgG; also called Ab 450
B5: ADI-24845 (antibody, V domains shown)
VH: EVQLVESGGGLVKPGGSLRLSCAASGFTFSSYSMNWVRQAPGKGLEWVSSISSSSSYIYYADSVKGRFTISRDNAKNSLYLQMNSLRAEDTAVYYCARDYCSGGSCYLAAFDIWGQGTTVTVSS
VL: QPVLTQPASVSGSPGQSITISCTGTSSDVGGYNYVSWYQQHPGKAPKLMIYEVSNRPSGVSNRFSGSKSGNTASLTISGLQAEDEADYYCSSYTSSSTPVVFGGGTKLTVL
notes: full-length IgG
B6: ADI-25468 (antibody, V domains shown)
VH: QVQLVQSGAEVKKPGESLKISCKGSGYSFTSYWIGWVRQMPGKGLEWMGIIYPGDSDTRYSPSFQGQVTISADKSISTAYLQWSSLKASDTAMYYCARHVGQVYCSSTSCYTSREYYFDYWGQGTLVTVSS
VL: not shown
notes: full-length IgG
B7: ADI-24795 (antibody, V domains shown)
VH: EVQLVESGGGLVKPGGSLRLSCAASGFTFSSYSMNWVRQAPGKGLEWVSSISSSSSYIYYADSVKGRFTISRDNAKNSLYLQMNSLRAEDTAVYYCARVGYSSSSGAFDYWGQGTLVTVSS
VL: QSVLTQPPSVSGAPGQRVTISCTGSSSNIGAGYDVHWYQQLPGTAPKLLIYGNSNRPSGVPDRFSGSKSGTSASLAITGLQAEDEADYYCQSYDSSLSGSVFGGGTKVTVL
notes: full-length IgG; also called Ab 363
B8: ADI-22758 (antibody, V domains shown)
VH: QVQLVESGGGLVKPGGSLRLSCAASGFSISSYSMNWVRQAPGKGLEWVSSISGSSSYIYYGDSVKGRFTISRDNARNSLYLQMNSLRAEDTAVYYCARGDIAAAGTITYYFAHWGQGTLVTVSS
VL: B7 VL with P42T, Y51F, S54N, S100A, K107Q, V108L
notes: full-length IgG
B9: ADI-19440 (antibody, V domains shown)
VH: EVQLVESGGGLVQPGGSLRLSCAASGFTFSSYSMNWVRQAPGKGLEWVSYISSSSSTIYYADSVKGRFTISRDNAKNSLYLQMNSLRAEDTAVYYCAREGYSGSYGYYFDYWGQGTLVTVSS
VL: B7 VL with G104T, V108L
notes: full-length IgG
B10: ADI-24858 (antibody, V domains shown)
VH: EVQLLESGGGLVKPGGSLRLSCAASGFTFSSYSMNWVRQAPGKGLEWVSSISSSSSYIYYADSVKGRFTISRDNAKNSLYLQMNSLRAEDTAVYYCARGGYSYGYSFDYWGQGTLVTVSS
VL: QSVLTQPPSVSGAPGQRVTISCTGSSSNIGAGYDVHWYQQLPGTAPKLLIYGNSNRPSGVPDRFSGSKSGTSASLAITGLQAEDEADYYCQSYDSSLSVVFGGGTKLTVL
notes: full-length IgG
B11: ADI-19502 (antibody, V domains shown)
VH: EVQLVESGGGVVQPGGSLRLSCAASGFTFSSDGMHWVRQAPGKGLEWVAFIQYDGTNKYYVDSVKGRFTISRDNSKNTLYLQMNSLRAEDTAVYYCAKDQGFRYSSSWYAFDIWGQGTMVTVSS
VL: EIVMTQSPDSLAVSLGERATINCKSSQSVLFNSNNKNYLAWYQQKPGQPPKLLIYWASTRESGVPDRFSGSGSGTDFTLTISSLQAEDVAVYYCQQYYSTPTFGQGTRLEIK
notes: full-length IgG
B12: ADI-22769 (antibody, V domains shown)
VH: QVQLVQSGGGLVQPGGSLRLSCAASGFTFSDHYMDWVRQAPGKGLEWVGRTRNKANSYTTEYAASVKGRFTISRDDSKNSLYLQMNSLKTEDTAVYYCARVGYYYYYGMDVWGQGTTVTVSS
VL: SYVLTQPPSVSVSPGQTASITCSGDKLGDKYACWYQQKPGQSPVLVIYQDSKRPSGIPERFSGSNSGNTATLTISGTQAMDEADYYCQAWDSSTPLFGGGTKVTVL
notes: full-length IgG
B13: ADI-19474 (antibody, V domains shown)
VH: QVQLVQSGAEVKKPGESLKISCKGSGYSFTSYWIGWVRQMPGKGLEWMGIIYPGDSDTRYSPSFQGQVTISADKSISTAYLQWSSLKASDTAMYYCARPYSGSYYAFDIWGQGTTVTVSS
VL: NFMLTQPHSVSESPGKTVTISCTRSSGSIASNYVQWYQQRPGSSPTTVIYEDNQRPSGVPDRFSGSIDSSSNSASLTISGLKTEDEADYYCQSYDSSNQVFGGGTKLTVL
notes: full-length IgG
B14: ADI-19491 (antibody, V domains shown)
VH: QVQLVQSGPTLVKPTQTLTLTCTFSGFSLSTSGVGVGWIRQPPGKALEWLALIYWDDDKRYSPSLKSRLTITKDTSKNQVVLTMTNMDPVDTATYYCAHRRATTVTTGYFDYWGQGTLVTVSS
VL: QSVLTQPPSVSGAPGQRVTISCTGSSSNIGAGYDVHWYQQLPGTAPKLLIYGNSNRPSGVPDRFSGSKSGTSASLAITGLQAEDEADYYCQSYDSSLSGHYVFGTGTKVTVL
notes: full-length IgG
B15: ADI-19492 (antibody, V domains shown)
VH: QVQLVQSGAEVKKPGESLKISCKGSGYRFTSYWIGWVRQMPGKGLEWMGIIYPGDSDTRYSPSFQGQVTISADKSISTAYLQWSSLKASDTAMYYCARSGSHYAFDLWGQGTMVTVSS
VL: NFMLTQPHSVSESPGKTVTISCTRSSGNIASNYVQWYQQRPGSSPTTVLYEDNQRPSGVPDRFSGSIDSSSNSASLTISGLKTEDEADYYCQSYDSSNPWVFGGGTKLTVL
notes: full-length IgG
B16: ADI-19499 (antibody, V domains shown)
VH: EVQLLESGPGLVKPSETLSLTCTVSGGSISSSSYYWGWIRQPPGKGLEWIGSIYYSGSTYYNPSLKSRVTISVDTSKNQFSLKLSSVTAADTAVYYCAVLLYSSSSFDYWGQGTLVTVSS
VL: B15 VL with N28S, L49I, P99Q, W100A, K107Q
notes: full-length IgG; also called Ab 201
B17: ADI-22776 (antibody, V domains shown)
VH: EVQLLESGGGLVKPGGSLRLSCAASGFTFSDYYMSWIRQAPGKGLEWVSYISSSGSTIYYADSVKGRFTISRDNAKNSLYLQMNSLRAEDTAVYYCAREIGGSYTGGAFDIWGQGTMVTVSS
VL: SYELTQPPSVSVAPGQTARITCGGNNIGSKSVHWYQQKPGQAPVLVVYDDSDRPSGIPERFSGSNSGNTATLTISRVEAGDEADYYCQVWDSSSDHVVFGGGTKVTVL
notes: full-length IgG
B18: ADI-25548 (antibody, V domains shown)
VH: EVQLVESGGGLIQPGGSLRLSCAASGFTVSSNYMSWVRQAPGKGLEWVSVIYSGGSTYYADSVKGRFTISRDNSKNTLYLQMNSLRAEDTAVYYCARGPQFGVSYSSGWYSFDYWGQGTLVTVSS
VL: QSVLIQPRSVSGSPGQSVTISCTGTSSDVGGYNYVSWYQQHPGKAPKLMIYDVSKRPSGVPDRFSGSKSGNTASLTISGLQAEDEADYYCCSYAGSYTFVVFGGGTKLTVL
notes: full-length IgG
B19: ADI-25598 (antibody, V domains shown)
VH: QVQLQESGPGLVKPSETLSLTCTVSPPSISSSSYYWGWIRQPPGKGLEWIGSIYYSGSTYYNPSLKSRVTISVDTSKNQFSLKLSSVTAADTAVYYCARPDSSGAFDIWGQGTMVTVSS
VL: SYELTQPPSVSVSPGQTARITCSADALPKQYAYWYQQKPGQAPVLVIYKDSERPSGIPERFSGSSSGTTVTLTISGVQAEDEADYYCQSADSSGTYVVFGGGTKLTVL
notes: full-length IgG
B20: ADI-24823 (antibody, V domains shown)
VH: EVQLLESGGGLVKPGGSLRLSCAASGFTFSSYSMNWVRQAPGKGLEWVSSISSSSSYIYYADSVKGRFTISRDNAKNSLYLQMNSLRAEDTAVYYCAREGDYYGSGRPFDYWGQGTLVTVSS
VL: QSVVTQPPSVSGAPGQRVTISCTGSSSNIGAGYDVHWYQQLPGTAPKLLIYGNSNRPSGVPDRFSGSKSGTSASLAITGLQAEDEADYYCQSYDSSLSVVFGGGTKLTVL
notes: full-length IgG
B21: ADI-22765 (antibody, V domains shown)
VH: EVQLVESGGGLVKPGGSLRLSCAASGFTFSSYSMNWVRQAPGKGLEWVSSISSSSSYIYYADSVKGRFTISRDNAKNSLYLQMNSLRAEDTAVYYCARDRGDGYNYDYWGQGTLVTVSS
VL: B20 VL with S2P, V4L, L107V
notes: full-length IgG
B22: ADI-19495 (antibody, V domains shown)
VH: QVQLQESGPGLVKPSETLSLTCTVSGGSISSYYWSWIRQPPGKGLEWIGYIYTSGSTNYNPSLKSRVTISVDTSKNQFSLKLSSVTAADTAVYYCARVGSYYDLQHWGQGTLVTVSS
VL: DIQLTQSPSSVSASVGDRVTITCRASQGISSWLAWYQQKPGKAPKLLIYAASSLQSGVPSRFSGSGSGTDFTLTISSLQPEDFATYYCQQANSFPLTFGGGTKVEIK

Positions count from the first letter of the chain named.

In the first assay the target is T1, RSV postfusion F (postF), subtype A (respiratory syncytial virus subtype A, UniProt P03420 26-513).
T1 construct: also called Postfusion subtype A; F deltaFP
Description: BLI. For orientation: BLI is a label-free optical method that tracks binding on a fibre tip over time.
For the molecule B1, the binding result is “no binding”. On to B2, for which the binding result is reported as “no binding”. The same measure, in the same setting: under B3 stands “no binding”; under B4, “no binding”.

Consider B5, for which the binding result is “no binding”. For B6, the binding result is recorded as “no binding”.

With B7, the binding result was “no binding”. Same read-out and setting: the result for B8 reads “no binding”. In the case of B9, the binding result is “no binding”. Same read-out and setting: under B10 stands “no binding”; under B11, “no binding”. Still for that read-out and setting: under B12 stands “no binding”; under B13, “no binding”; under B14, “no binding”. Turning to B15, the binding result was “no binding”. On the same count and under the same terms, under B16 stands “no binding”; under B17, “no binding”; under B18, “no binding”. As to B19, the binding result was “no binding”. Still for that read-out and setting: the result for B20 reads “no binding”. The same measure, in the same setting: the result for B21 reads “no binding”; that for B22, “no binding”.

A further assay has as its target T2, RSV prefusion F (preF), subtype B (respiratory syncytial virus subtype B).
T2 construct: also called Prefusion subtype B
Description: BLI, IgG.
In turn, B4 came in with a Kd of 42 nM.

In turn, B5 came in with a Kd of 36.7 nM.

Molecule B7 came in with a dissociation constant (Kd) of 34.2 nM. Same read-out and setting: the result for B9 reads 14.3 nM. Still for that read-out and setting: the result for B10 reads 26.3 nM. Turning to B20, binding was characterised by a dissociation constant (Kd) of 6.03 nM. This Kd is about 4.4-fold lower than that of the molecule before.
